Test: yeast display, Sf9 membrane polyspecificity reagent, FACS + sequencing; frameworks hold sequencing errors
In short: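 Nanobodies from a synthetic yeast display library (Saccharomyces cerevisiae BJ5465), induced 36–48 hours with galactose, were stained 1 hour at 4 °C with 10% biotinylated, detergent-solubilized Sf9 membrane reagent, enriched on streptavidin microbeads, then FACS-sorted. Anti-HA (expression) and streptavidin (reagent binding) fluorescence set low and high (top ~1%) gates. Polyreactivity labels come from the gate of origin. Genes were colony-PCR amplified, MiSeq 2 × 250 sequenced and filtered by CDR length.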

Row | Sequence | polyreactivity (PSR sort gate)
1 | QEQLQESGGGLVQEGGSLRLSCAASGNISPPADMGWYRQAPGKERELVASIGTGGTTNYADSVKGRFTISRDNAINTVYLQMNSLKPDDTAVYYCAAVRYEYNPYDYWGQGTQVTVSS | low polyreactivity
2 | QEQLQESGGGQVQAGGSLLLSCAASGNIIRYYYMGWSRQAPGKERELVAAITYGTSTNYADSVKGRFTISRDNAKNTVYLQMNSLKPEDTAVYYCAVDVNYGDPLDNWGQGTQVTVSS | high polyreactivity
3 | QEQLQESGGGQVQAGGSLLLSCAASGNIIRYYYMGWYRQAPGKERELVAAITYGTSTNYADSVKGRFTISRDNAKNTVYLQMNSLKPEDTAVYYCAVDVNYGDPLDNWGQGTQVTVSS | high polyreactivity
4 | QEQLQESGSGLVQAGGSLRLSCAASGNIFQDWFMGWYRQAPGKERELVAAISPGANTNYADSVKGRFTISRDNAKNSVYLQMNSLKPEDTAVYYCAAESLFDDYYGYWGQGTQVTVSS | low polyreactivity
5 | QEQLQESGSGLVQAGGSLRLSCAASGNIFQDWVMGWYRQAPGKERELVAAISPGAITYYADSVKGRFTISRDNAKYTVYLQTNSLKPEDTAVYYCAAYYIVEYLHGYWGQGTRVTVSS | low polyreactivity
6 | QEQLVESGGGLDQAGGSLRLICDASGFTFLGYAMGWYRQAPGKERELVAAITSGGRTNYADSVKGRFTISRDNAKNTVYLQMNSLKPEDTAVYYCAAYRWDYYYWGQGTQVTVSS | high polyreactivity
7 | QEQLVESGGGLVQAGGSLRLICADSGRTLVYYGMGWYRQAPGKERELVAAISGSGGRTYYADSVKGRFTISRDNAKNTVYLQMNSLKPEDTAVYYCAALCRSYPAKYASYDYCGQGTQVTVSS | high polyreactivity
8 | QEQLVESGGGLVQAGGSLRLICPASGSIFNIYAMPWSRQAPGKERELVATITGIADSTYYADSVKGRFTISRDNAMNTVYLQMNSLKPEDTAVYYCAAEKYVAEYDYWGHGTQVTVSS | low polyreactivity
9 | QEQLVESGGGLVQAGGSLRLSCAASGGTFGSNTRGWYRQAPGKERELVAAITSGVSTNYADSVKGRFTISRDNAKITVYLQMNRLKPEDTAVYYCAKELWSEEYETIITYYGFDYLGQGTQVTVSS | low polyreactivity
10 | QEQLVESGGGLVQAGGSLRLSCAASGSILRYYAMRWYRQPPGKEREFVAAISWSGTSTYYADSVKGRFTISRDIAKNTVYLQLNSLKPEDTSVYYCAARTYYVPYYYCGQGTQVTVSS | high polyreactivity
11 | QEQLVESGGGLVQAGGSLRLSCAASGSTFYANAMGWYRQAPGQERELVAAISWDGGNTYYADSVKGRFTISRDNAKNNVYLQMNSLKPEDTAVYYCARDYYGTVYYYGYDYWGQGTQVTVSS | low polyreactivity
12 | QEQLVESGGGLVQAGGSLRLSCDASGRTLSRYTMGWYRQPPGQETELVAAISTSGSTYYADSVKGRFTISRDNAKNPVYLQMNSVKPDDTGVYYCNAVGLYLHYATGYDYWGQGRQVTVSS | high polyreactivity
13 | QFHLVESGGGLVQAGGSLRLSCAASGSIFYPYDMGWYRQAPGKERELVATINWSSGRTNYADSVKGRFTISRDYAKNTVYLQMNSLKPEDSAVYYCNARFYYTLYYDYWGQGTQVTVSS | high polyreactivity
14 | QFHLVESGGGLVQAGGSLRLSCAATGSIFYTNAMGWYRQPAGTDRELVASIRSRDRTKYADSVKWRFSISRVNAKNTVYLQMNSLKPEDTAVYYCAADRYWYGVHASIYYYWGHGTQVTVSS | high polyreactivity
15 | QFKLVESGGGLVQAGGSLRLSCAASGSTFKWNAMGWYRQAPGKERELVAAITSGGSTTYADSVKGRFTISRDNAKNTVYLQMNSLKPEDTAVYYCAAAYRRHYYGVYRFDYWGQGTQVTVSS | high polyreactivity
16 | QFKLVESGGGLVQAGGSLRLSCAASGVIIQGNAMGWYRQAPGNEMELVAAISSSVSTYYADSVKGRFTISRDNAKNTVYLQMTSLKPEDTAVYYCNAGFPLSLWLGDYWGHGTQVTVSS | low polyreactivity
17 | QFPLVESAGGLGQAGGTLRLTWAASGLSFGANTLGWYRHAPGKERELVAALTISGGITHYADSVKGRFTISRDNANNTVYVQIKSLQPEDTAVYYCAAGAYWRLYPYRQRNGGRMYYWGQGTQVTVSS | low polyreactivity
18 | QFQHVDSGGGLVQAGGSLRLSCADSGYTFPLYDMGRYRKAPGKVSELVADINIGGASTYYADSVKGRLTISRDNSKNSVYLQMNSLKPEDTAVYYCAKEYYDGYFPTFDYDYWGQGTQVTVSS | low polyreactivity
19 | QFQIVESGGGLVQAGGSLRLSCAASGGTFVSYAMGWYRQAPGKERELVAAITYSGGSTYYADSVKGRFTISRDNAKNTVYLQMNSLKPEDTAVYYCAAAKFSYFSYCPRGKVKYEYWGQGTQVTVSS | low polyreactivity
20 | QFQIVESGGGLVQAGGSLRLSCAASGSTFRSYAMGWYRQAPGKERELFARISYRTGSTYYADSVKRRFTISRDNAKNTVYLQMNSLKPEDTVVYYCAAGYIIQRSYFLYDSWGHGTQVTVSS | high polyreactivity
21 | QFQLEESGGGLVQAGGSLRLSCAASARIFLNYAMGWFRQAPGKEMELVAAIRSASSTYYADSVKGRFTISRDNAKNTVYLQMNSLKAEDTAVYYCARLRYFLLNGSLRYGSSDRDYWGQGTQVTVSS | high polyreactivity
22 | QFQLLESGGGLVQAGGSLRLSCAASGRTFSYNAMGWYRKAPGIERELVAAITGGTASTYYADSVKGRFTISRDNAKNPVYFQMNSLKPEETAVYYCNRASVFHYPWYYYWGQGTQVTVSS | high polyreactivity

Row | Sequence | polyreactivity (PSR sort gate)
23 | QFQLLESGGGLVQAGGSLRLSCAASGSTFSLTTMGWYRPAPGKERELVAAINSGGSTYYADSVKGRFTISRDNAKNTVYLKMNSLKPEDTAVYYCAARTKYFGRFDYWGQGTQVTVSS | low polyreactivity
24 | QFQLLESGGGLVQAGGSLRRSCAASGFTFDYYAMGWSRQAPGKERELVAVNNWSGGDTYYADSVKGRFTISRDNAKNTVYLQMNSLKPEDTAVYYCARVERMRYVGKYYPIRDYWGQGNQVTVSS | high polyreactivity
25 | QFQLVDSGGGLVQAGGSLRLRSAASGRTFYPYVMAWYRQAPGKEREIVAAISYTGCSTYYADSVKGRFTISRDNAKNTVYLQMNSLKPEDTAVYYCNRAKYYSGGYRYHVDYWGQGTQVTVSS | high polyreactivity
26 | QFQLVDSGGGLVQAGGSLRLSCAASGSTFGYYAMGWYRQATGKERELVAAISWRGGSTSYADSVKGRFTISRDNAKNTVYLQMNSLIPEDTAVYLCAAGGDINKYGRQYRYDYWGQGTQVTVSS | high polyreactivity
27 | QFQLVEAGGGLVQAGGSLRLSCAASGSIIPNYNMGWYRQAPAKETELVAAMSISGGTTYYADSVKGRFTISRDNAKNTVYLQMNSLKPEETAVYYCAAVEYYWFLGYYYRYDYWGQGTQVTVSS | high polyreactivity
28 | QFQLVESAVVLVQAGGSLRLSCAASGGIFGSYAMGWYRQAPGKEMEFVAAIRYGSGSQYYADSVKGRFTISRDNAKNTVYLQMNSLKPEDTAVYYCATEYWGVYGYGFIYDYWGQGTQVTVSS | low polyreactivity
29 | QFQLVESCGGLVHAGGSLRLSCAASGSIFFSYAMGWYRQAPGKERELVAAISSGGSTYYADSVKGRFTISRDNAKNTVYLQMNSLKPEDTAVYYCAARGYRLVPVDFYYWGQGTQVTVSS | low polyreactivity
30 | QFQLVESCGGLVPAGGSLRLSCAASGRILSDYAMGWYRQAPGKERELVAVISWDGTNTYYADSVKGRFPISRDNAKNTVYLQMNSLKPEDTAVYYCAATGTSYYSAYDYWGQGTQVTVSS | low polyreactivity
31 | QFQLVESGGALVQAGGSLRLSCAASGSTFTGYTMGWYRQAPGKERELVAAINWSGGRTYYADSVKGRFTISRDNAKNTVYLQMNSLKPDDTAVYYCAVRSRSLGGYLGQGTQVTVSS | high polyreactivity
32 | QFQLVESGGGIVQAGGSLRLSCYASGTFYKYAMGWNTQAPGKERELVAAISWRGGRTYADSVKGRFTISRDNAKNTVYLQMNSLIPEDTAVYYCYKRFYPEHYYWGQGTQVTVSS | high polyreactivity
33 | QFQLVESGGGLDQAGGSLRLSCAASGSIFWYYAMGWYRQAPGKERELVAAISISGSTYYADSVKGRFTISRDNAKNTVYLQMNSLKPEDTAVYYCAARKFFWRSNYDYWGQGTQVTVSS | low polyreactivity
34 | QFQLVESGGGLDQAGGSLRLSCAATGSTFTSYAMGWYIQAPGKERELVAAITSRGGTYYADSVKGRFTISRDNAKNTVYLQMNSLKPEDTAVYYCAARATYKKYPYVKWYDYWGQGTQVTVSS | high polyreactivity
35 | QFQLVESGGGLVHAVGSLRLSCAASGRTGKNAMGWYRQAPGKERELVAAIRYNGGSTYYADSVKGRFTISRDNAKNSVYLQMNSLKPEDTAVYYCAAAFRRHNGSAFNYWGQGTQVTVSS | high polyreactivity
36 | QFQLVESGGGLVQAGCSLRLSCAAYGSIFGGYAMGWYRQAPGKERELVAAISYRGASTYYADSVKGRFTISRDNAKNTVYLQMNILKPEDTAVYYCAVPARTRARVLYGYDYWGQGTQVTVSS | low polyreactivity
37 | QFQLVESGGGLVQAGGILRLSCAASGSIFYHNAMGWSRQAPGKERELVAAITGSGGSTYYADSVKGRFTISRDNAKNTVYLQMNSLKPEDTAVYYCAADGYTKWWISWGYDYWGQGTQVTVSS | low polyreactivity
38 | QFQLVESGGGLVQAGGRLRLSCAASGRIFRYSAMGWYRQAPGKERQLVASISSGGSTNYADSVKGRFTISRDNAKNTVYLQMNSLKQEDTAVYYCAARYWVSGFRAGYYWGQGTQVTVSS | high polyreactivity
39 | QFQLVESGGGLVQAGGRLRLSCAASGSTFLPYAMGWYRQAPGKESELVAAIRGRGGRTYYADSVKGRFTISRANAKNTVYLQMNSLKPEDSAVYYCAADVKGLSWTYDSWGQGTQVTVSS | high polyreactivity
40 | QFQLVESGGGLVQAGGSHRLSCAASGSIFFINAMGWYRQAPGKERELVASISQSGVSTYYADSVKGRFTISRDNAKNTVYFEMNSLKPEDTAVYYCATGPVRRARYVWSYTYYYWGQGTQVTVSS | low polyreactivity
41 | QFQLVESGGGLVQAGGSLRISCAATGLIYYVYAMGWYRQAPGKESELVAAIRSGGSTNNADSVKGRFTISRDNAKNTVYLQMNRLKPEDTAVYYCAVDTWYFLFQYGYYQEGDYWGQGTQVTVSS | low polyreactivity
42 | QFQLVESGGGLVQAGGSLRLICAASGFIFWYNAMGWYRQSPGKEREFVAAISSGGSTTYADSVKGRFTISRDNALITVYLQMNSLKPEDTAVYYCAAGSYDYDYWGQGTQVTVSS | low polyreactivity
43 | QFQLVESGGGLVQAGGSLRLSCAASGFIFSFYAMGWYRQAPGKERELVARINWTGGSTYYADSVKGRFTISRDNAKNSVYLQMNSLKPEDTAVYYCARPVRRIIGVTDEYWGQGTQVTVSS | low polyreactivity

Reference: the nanobody polyreactivity screen of Harvey et al. (2022)
